According to the nanobody polyreactivity screen of Harvey et al. (2022):

Assay: yeast display, Sf9 membrane polyspecificity reagent, FACS + sequencing; frameworks hold sequencing errors
Procedure, shortened: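 Galactose-induced (36–48 hours) yeast carrying a synthetic nanobody display library were exposed to 10% biotinylated, detergent-solubilized Sf9 membrane reagent at 4 °C for 1 hour. FACS followed streptavidin microbead enrichment, using low and high (top ~1%) gates for expression (anti-HA) and reagent binding (streptavidin). Colony PCR, MiSeq 2 × 250 sequencing and CDR-length filtering followed. Labels for polyreactivity reflect the gate of origin.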
With “QVQLVESGGGLVQAGGSLRLSCAASGRTFYPYAMGWYRQAPGKERELVAAISYRGGSTYYADSVKGRFTISRDNAKNTVYLQMNSLKPEDTAVYYCAKRGYASGSKWDYGYWGQGTQVTVSS” the “polyreactivity (PSR sort gate)” value was “high polyreactivity”. In the case of “QVQLVESGGGLVQAGGSLRLSCAASGRTFYPYAMGWYRQAPGKERELVAAITQSGGSTYYADSVKGRFTISRDNAKNTVFLEMNSLKPEDTAVYYCAKRGYDNYPFYYWGQGTQVTVSS”, the “polyreactivity (PSR sort gate)” value is reported as “high polyreactivity”. With “QVQLVESGGGLVQAGGSLRLSCAASGRTFYPYAMGWYRQAPGKERELVATIRWTGGSTYYADSVKGRFTISRDNAKNTVYLQMNSLKPEDTAVYYCAAQNYFAFIRTYRYVHRPTYYYWGQGTQVTVSS” the “polyreactivity (PSR sort gate)” value was “high polyreactivity”. With “QVQLVESGGGLVQAGGSLRLSCAASGRTFYPYTMGWYRQAPGKEMELVAAITTSTGNTYYADSVKGRFTISRDNAKNNVYLQMNILKPEDTSVYYCAADTVWRLDYWGQGTKVTVSS” the “polyreactivity (PSR sort gate)” value was “low polyreactivity”. With “QVQLVESGGGLVQAGGSLRLSCAASGRTFYPYVMGWYRQAPGKEREFVAAISGTGGSTYYADSVKGRFTISRDNAKNTVYLQMNSLKPEDTAVYYCNRRIPYTSYSYGYWGQGTQVTVSS” the “polyreactivity (PSR sort gate)” value was “high polyreactivity”. In the case of “QVQLVESGGGLVQAGGSLRLSCAASGRTFYQNVMGWYRPAPGKERELVAAISQRGGRTYYADSVKGRFTISRDNAKNTVYLQMNSLKPEDTAVYYCNADSTVWPYDYWGQGTQVTVSS”, the “polyreactivity (PSR sort gate)” value is reported as “low polyreactivity”. With “QVQLVESGGGLVQAGGSLRLSCAASGRTFYQYAMGWYRQAPGKERELVAAISKSGRRTYYADSVKGRFTISRDNAKNTVYLQINSLKPEDTAVYYCNAARYLTRWGRFYYWGEGTQVTVSS” the “polyreactivity (PSR sort gate)” value was “high polyreactivity”. In the case of “QVQLVESGGGLVQAGGSLRLSCAASGRTFYQYGMGWYRQAPGKERELVAAISDSGGGTYYADSVKGRFTISRDNAKHTVYLQMNSLKPEDTAVYFCAATYVGPRRRYYYWGQGTQVTVSS”, the “polyreactivity (PSR sort gate)” value is reported as “high polyreactivity”. In the case of “QVQLVESGGGLVQAGGSLRLSCAASGRTFYRNAMGWYRPAPGKERELVAAITSSGASTYYADSVKGRFTISRDNAKNTVYLQMKSLKPEDTAVYYCAAKYVFSVGNYRYDYWGQGTQVTGSS”, the “polyreactivity (PSR sort gate)” value is reported as “low polyreactivity”. With “QVQLVESGGGLVQAGGSLRLSCAASGRTFYRNAMGWYRQAPGKERELVAAISRGDSTYYADSVKGRFTISRDNAKNTVYLQMNSLKPEDTAVYYCAKRARRIGDVNMGSWGQGTQVTVSS” the “polyreactivity (PSR sort gate)” value was “low polyreactivity”. In the case of “QVQLVESGGGLVQAGGSLRLSCAASGRTFYRNAMGWYRQATGKEREFVAVISVSGGSTYYADSVKGRFTISRDYAKNTVYLQMNSLKPEDTAVYYCGKRGPVRKTAYEYWGQGTQVTVSS”, the “polyreactivity (PSR sort gate)” value is reported as “low polyreactivity”. With “QVQLVESGGGLVQAGGSLRLSCAASGRTFYRNDMGWYRQAPGKERELVAAITSSGGTTYADSVKGRFTISRDNAKNTVYLQMNSLKPEDTAVYYCAAVYAYPNIYDYWGQGTQVNVSS” the “polyreactivity (PSR sort gate)” value was “low polyreactivity”. With “QVQLVESGGGLVQAGGSLRLSCAASGRTFYRYAMGWSRQAPGKERELVAGISGSGGRTYYADSVKGRFTISRDNAKNTVFLQMNSLKPEDTAVYYCNAYPHAYTGSTREGDYWGQGTQVTVSS” the “polyreactivity (PSR sort gate)” value was “high polyreactivity”. For “QVQLVESGGGLVQAGGSLRLSCAASGRTFYRYAMGWYRQAPGKEREFVAAISNGGSNTRYADSVKGRFTISRDNAKNTVYLQMNSLKPEDTAVYYCAARAYQHYNWGQGTQVTVSS”, the “polyreactivity (PSR sort gate)” value was “high polyreactivity”. With “QVQLVESGGGLVQAGGSLRLSCAASGRTFYRYAMGWYRQAPGKERELVAAITSGDRTDYADSVKGRFTISRDNAKNTVYLQMNSLKPEDTAVYYCAADPYYVTDYDYWGEGTQVTVSS” the “polyreactivity (PSR sort gate)” value was “low polyreactivity”. With “QVQLVESGGGLVQAGGSLRLSCAASGRTFYRYAMGWYRQAPGKERELVAVISTDGSSTYYADSVKGRFTISRDNAKNTVYLLMNSLKPEDTAVYYCAARSLAWLFGRNYWGQGTQVTVSS” the “polyreactivity (PSR sort gate)” value was “high polyreactivity”. In the case of “QVQLVESGGGLVQAGGSLRLSCAASGRTFYRYAMGWYRQPPGKESELVARIRATGGSTYYADSVKGRFTISRDYAKNTVYSQMNSLKPEDTAVYYCAAKIRWGSTWLGAGDYWGQGTQVTVSS”, the “polyreactivity (PSR sort gate)” value is reported as “high polyreactivity”. In the case of “QVQLVESGGGLVQAGGSLRLSCAASGRTFYSFNAMVCYRQAPVKERELVAAIVGDGGITYYADSVKGRFTISRDNANNTVFLQMNSLKPEDTAVYYCAAETLHSSDGEDDYWGQGTQVSVSS”, the “polyreactivity (PSR sort gate)” value is reported as “low polyreactivity”. With “QVQLVESGGGLVQAGGSLRLSCAASGRTFYSNAMGWYRPAPGKERELGATISSGGSTNYADSVKGRFTISRDTAKNTVYLQINSVKPADTAVYYCDTRPDRINDYWGQGTQVTVSS” the “polyreactivity (PSR sort gate)” value was “low polyreactivity”. In the case of “QVQLVESGGGLVQAGGSLRLSCAASGRTFYSNAMGWYRQAPGKERELVAAITSGGSTNYADSVKGRFTISRDNAKNTVYLQMNSLKPEDSAVYYCAVRGYWTIRSRRYYYWGQGTQVTVSS”, the “polyreactivity (PSR sort gate)” value is reported as “high polyreactivity”. With “QVQLVESGGGLVQAGGSLRLSCAASGRTFYSNAMGWYRQAPGKERELVAAITSTDDSTYYADSVKGRFTISRDNAKNTVYLQMNSLKPEDNAVYYCNRDGLIAIRGLWWVEYDYWGQGTQVTVSS” the “polyreactivity (PSR sort gate)” value was “low polyreactivity”. For “QVQLVESGGGLVQAGGSLRLSCAASGRTFYSNAMGWYRQAPGKERELVAGINIGGGSTYYADSVKGRFTISRDNAKNTVYLQMNSLKPEDTAVYYCAARRWGAYRHGYWGQGTQVTVSS”, the “polyreactivity (PSR sort gate)” value was “high polyreactivity”. For “QVQLVESGGGLVQAGGSLRLSCAASGRTFYSYAMGWYRQAPGKERELVAAINTSGGRTHYADSVKGRFTISRDNAKNTVYLQMNCMKPEDTAVYYCAKLARSGTLTYYYWGQGTQVNVSS”, the “polyreactivity (PSR sort gate)” value was “high polyreactivity”. For “QVQLVESGGGLVQAGGSLRLSCAASGRTFYSYAMGWYRQAPGKERELVAAITSDGGTYYADSVKGRFTISRDNAKNTVYLQMNSLKPEDTAVYYCNAVGGWVTHWLLREGDYWGQGTQVTVSS”, the “polyreactivity (PSR sort gate)” value was “low polyreactivity”. In the case of “QVQLVESGGGLVQAGGSLRLSCAASGRTFYSYAMGWYRQAPGKERELVAAMTSDGGTYYADSVKGRFTISRDNAKNTVYLQMNSLKPEDTAVYYCAAELYYWYYYWGQGTKVTVSS”, the “polyreactivity (PSR sort gate)” value is reported as “low polyreactivity”. In the case of “QVQLVESGGGLVQAGGSLRLSCAASGRTFYSYARGWYRQAPGKEREFFAAISRSGGSTYYADSVKGRFTISRDYAKNTVYLQMNSLKPEDTAVYYCAARYRRDDYDYWGQGTQVTVSS”, the “polyreactivity (PSR sort gate)” value is reported as “high polyreactivity”. In the case of “QVQLVESGGGLVQAGGSLRLSCAASGRTFYSYTMGWYRQAPGKERELVAAINRGGSTYYADSVKWRFTISRDNAKNTVYLQMNSLKPEDTAVYYCNADNWVYLYDYWGQGTQVTVSS”, the “polyreactivity (PSR sort gate)” value is reported as “low polyreactivity”. With “QVQLVESGGGLVQAGGSLRLSCAASGRTFYTNAKGWYRQAPGKERELVAAISSDSSTNYADSVKGRLTISRDNAKNTVYLQMNSLKPEDTAVYYCNKVRQGWADYEYWGQGSQVTVSS” the “polyreactivity (PSR sort gate)” value was “low polyreactivity”. For “QVQLVESGGGLVQAGGSLRLSCAASGRTFYTNAMGWSRQAPGKERELVAAISRGGGRTYYADSVKGRFTISRDNAKNTVYLQMNSLKPEDTAVYYCAASPYQGQGREYYYWGQGTQVTVSS”, the “polyreactivity (PSR sort gate)” value was “high polyreactivity”. With “QVQLVESGGGLVQAGGSLRLSCAASGRTFYTNTMGWYRPAPGKERELVAAISYSGSSTYYADSVKGRFTISRDNAKNTVYLQMNSLKPEDTAVYYCNAVRYYRYYYWGQGTQVTVSS” the “polyreactivity (PSR sort gate)” value was “low polyreactivity”. For “QVQLVESGGGLVQAGGSLRLSCAASGRTFYTVYAMGWYRQAPGKERELVAAITRSGGSTYYADSVKGRFTISRDNAKNTLYLQMNSLKPEDTAVYYCAAAPPLAGLGGYYWGQGTQVTVSS”, the “polyreactivity (PSR sort gate)” value was “high polyreactivity”. For “QVQLVESGGGLVQAGGSLRLSCAASGRTFYTYTMGWYRQAPRKEREFVAAISSSGSSTYYADSVKGRFTISRDNAKNTVYLQMNSLKPEDTAVYYCAATSYSYPGYFRYDYWGQGTQVTVSS”, the “polyreactivity (PSR sort gate)” value was “high polyreactivity”. In the case of “QVQLVESGGGLVQAGGSLRLSCAASGRTFYVKVMGWYRQEPGKERELVAVISRSDGSTTYADSVKGRFTISRDNAKNTVYLQMNSLKPEDTAVYYCNTDLPLGSGVLPDWELFDYWGQGTQVTVSS”, the “polyreactivity (PSR sort gate)” value is reported as “low polyreactivity”. With “QVQLVESGGGLVQAGGSLRLSCAASGRTFYVNAMGGYRQAPGKERELVARITSGGSTYYADSVKGRFTISRDNAKNTVYLQMNSLKPEDTAVYYCAKKYIGYQEWIHSTRRYDYWGQGTQVTGSS” the “polyreactivity (PSR sort gate)” value was “low polyreactivity”. With “QVQLVESGGGLVQAGGSLRLSCAASGRTFYVNTMGWYRQAPGKERELVASITWSDGSTYYADSVKGRFTISRDNAKNTVYLQMNSLKPDDSAVYYCAASGRFIVNAYRSWGRRRYEYWGQGTQVTVSS” the “polyreactivity (PSR sort gate)” value was “high polyreactivity”. With “QVQLVESGGGLVQAGGSLRLSCAASGRTFYVYAMGWYRQAPGKERELVAAITFSGGSTYYADSVKGRFTISRDNAKNPVYLQMNSLKPEDTAVYYCNRRSYVPDRFRHDSSVIYDYWGQGTQVTVSS” the “polyreactivity (PSR sort gate)” value was “low polyreactivity”. For “QVQLVESGGGLVQAGGSLRLSCAASGRTFYVYAMGWYRQAPGKERELVATISRGGSTTYADSVKGRFTISRDNAKNTVYLQMNSLKPEDTAVYYCATELLGGRRTVAYYWGQGTQVTVSS”, the “polyreactivity (PSR sort gate)” value was “low polyreactivity”. For “QVQLVESGGGLVQAGGSLRLSCAASGRTFYVYAMGWYRQAPGNERELVATISRSGGGTYYADSVKGRFTISRDNAKNTVYLQMNSLTPEDTAVYYCAAKPYRRDYGYWGQGTQVTVSS”, the “polyreactivity (PSR sort gate)” value was “high polyreactivity”. With “QVQLVESGGGLVQAGGSLRLSCAASGRTFYVYNMGCYRQAPGKERELVAGISYSGGSTYYADSVKGRFTISRDNAKNTVYLQMNSLKPEDTAVYYSNAELYFPYFDGKTRLGGYWGLGTQVTVSS” the “polyreactivity (PSR sort gate)” value was “low polyreactivity”. With “QVQLVESGGGLVQAGGSLRLSCAASGRTFYWNAMGWYRQAPGKERELVAAISDGGGSTYYADSVKGRFTISRDNAKNTVYLHMNSLKPEDTAVYYCNTPDNQDKPYPGYDYWGQGTQVTVSS” the “polyreactivity (PSR sort gate)” value was “low polyreactivity”. In the case of “QVQLVESGGGLVQAGGSLRLSCAASGRTFYWNAMGWYRQAPGKERELVASINGGGSTYYADSVKGRFTISRDNAKNTVYLQMNSLKPEDTAVYYCNVRYYFPRYQQRYQLNEYYYWGQGTQVTVSS”, the “polyreactivity (PSR sort gate)” value is reported as “low polyreactivity”. In the case of “QVQLVESGGGLVQAGGSLRLSCAASGRTFYYNAMGWYRQAPGKERELVAAISYRGGSTYYADSVKGRFTISRDNAKNTVYLQMNSLKPEDTAVYYCAKYPHPLKYPGYPSEFDYWGQGTQVTVSS”, the “polyreactivity (PSR sort gate)” value is reported as “low polyreactivity”. In the case of “QVQLVESGGGLVQAGGSLRLSCAASGRTFYYNAMGWYRQAPGKERELVAAITYSGGSTYYADSVKGRFTISRDNAKNTVYLQMNSLKPEDTAVYYCAADVYRPAGNWEHYYWGQGNQVTVSS”, the “polyreactivity (PSR sort gate)” value is reported as “low polyreactivity”.
